14 substances from patent publication US20240368668A1, “SUBSTRATES AND BIOMARKERS OF ADAMTS7” (The Broad Institute, Inc., priority 2021, published 2024) can be followed below.

This assay deals with T1, mouse ADAMTS7 (Mus musculus, UniProt Q68SA9, E373Q).
T1 construct: Full-length mouse Adamts7 1-1857 (Uniprot Q68SA9, WT or E373Q catalytic mutant); expressed in transfected cells; host or cells: Human Coronary Artery Smooth Muscle Cells (HCA-SMC, Lonza), adenovirus 50 MOI
T1 sequence (Q68SA9 221-1657 E373Q): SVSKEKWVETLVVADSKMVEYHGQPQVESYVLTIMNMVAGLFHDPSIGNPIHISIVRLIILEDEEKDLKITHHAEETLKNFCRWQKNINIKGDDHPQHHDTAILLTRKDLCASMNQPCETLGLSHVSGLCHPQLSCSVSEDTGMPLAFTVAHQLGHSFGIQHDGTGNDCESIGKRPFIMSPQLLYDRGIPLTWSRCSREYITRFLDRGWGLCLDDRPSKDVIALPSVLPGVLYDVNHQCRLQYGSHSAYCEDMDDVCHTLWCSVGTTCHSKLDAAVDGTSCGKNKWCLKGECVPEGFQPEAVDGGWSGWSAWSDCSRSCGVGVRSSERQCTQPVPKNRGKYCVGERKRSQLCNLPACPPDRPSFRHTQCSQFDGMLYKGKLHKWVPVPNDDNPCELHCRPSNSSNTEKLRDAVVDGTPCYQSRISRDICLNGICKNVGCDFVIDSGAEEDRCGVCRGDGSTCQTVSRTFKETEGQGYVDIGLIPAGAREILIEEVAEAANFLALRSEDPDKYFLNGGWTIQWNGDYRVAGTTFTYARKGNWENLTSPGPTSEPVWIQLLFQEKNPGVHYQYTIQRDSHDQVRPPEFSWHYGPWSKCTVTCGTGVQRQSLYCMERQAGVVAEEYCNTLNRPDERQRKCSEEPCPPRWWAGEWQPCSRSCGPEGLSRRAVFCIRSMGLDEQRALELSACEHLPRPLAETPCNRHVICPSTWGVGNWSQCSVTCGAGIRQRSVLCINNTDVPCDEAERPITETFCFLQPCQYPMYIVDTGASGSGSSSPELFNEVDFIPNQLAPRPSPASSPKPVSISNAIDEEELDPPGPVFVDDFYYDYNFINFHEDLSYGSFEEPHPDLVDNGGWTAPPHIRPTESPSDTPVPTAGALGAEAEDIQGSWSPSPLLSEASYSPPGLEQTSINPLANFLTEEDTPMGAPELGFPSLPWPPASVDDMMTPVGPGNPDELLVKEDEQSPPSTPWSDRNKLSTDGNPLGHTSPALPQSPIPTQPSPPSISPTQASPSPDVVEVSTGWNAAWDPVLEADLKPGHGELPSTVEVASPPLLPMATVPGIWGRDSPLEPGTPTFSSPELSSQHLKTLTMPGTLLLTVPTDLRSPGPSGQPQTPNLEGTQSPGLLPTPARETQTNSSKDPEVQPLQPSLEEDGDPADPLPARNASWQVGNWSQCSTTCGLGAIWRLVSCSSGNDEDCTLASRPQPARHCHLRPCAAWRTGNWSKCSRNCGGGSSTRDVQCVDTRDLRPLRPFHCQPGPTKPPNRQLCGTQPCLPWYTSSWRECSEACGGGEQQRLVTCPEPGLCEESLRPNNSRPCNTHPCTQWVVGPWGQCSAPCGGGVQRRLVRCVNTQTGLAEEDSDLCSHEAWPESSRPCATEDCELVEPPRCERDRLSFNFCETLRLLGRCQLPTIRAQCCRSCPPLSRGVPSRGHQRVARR
Kind of assay: TMT10 TAILS N-terminomics, HUVEC experiment (process replicates, trypsin/AspN digest). It is filed as cell-based, human. Conditions: HUVEC TAILS HC; log fold change of N-terminal peptide, Ad-mADAMTS7 EQ over Luc. The text has this:
ADAMTS7 Expression, Cell Culture and Preparation of the Secreted Proteins—Full-length mouse Adamts7 1-1857 (Uniprot Q68SA9, WT or E373Q catalytic mutant) with a carboxyl terminal 3xFLAG tag was used to generate custom adenoviruses as previously described. Adeno-CMV-Luciferase (Ad-Luc) from Vector Biolabs was used as a negative control. Human Coronary Artery Smooth Muscle Cells (HCA-SMC) were obtained from Lonza and expanded in Lonza SmGM-2 media in 15 cm tissue culture plates. Twenty-four hours before media collection, near confluent plates were transduced with 50 MOI adenovirus and switched to Lonza Basal SM media with volumes of 20 ml per 15 cm plate. Expression of the Flag tagged ADAMTS7 was confirmed from the media using western blot and detected using the anti-Flag M2-HRP antibody (Sigma, A8592). Collected media was processed by adding protease inhibitors (1 mM EDTA and 1 mM PMSF) and clarified by 500 g×5 min spin at 4 C to pellet cell debris. Cell media supernatants were then passed through a 0.22 um filter and kept chilled. Processed media was then concentrated 50-100× using 3 kDa Centricon Plus-70 filter unit, spun at 3,500 g×60 min at 4 C. Approximately 10% of the processed, concentrated media was set aside for total secretome proteolytic analysis. The remaining 90% of the processed, concentrated media was buffer exchanged into 50 mM HEPES pH 8.0, 150 mM NaCl (2×50 ml) using the 3 kDa Centricon Plus-70 filter unit and concentrated to >2 mg/ml to serve as input for the TAILS experiment. Secretome and TAILS input samples were stored at −80° C.
For the first experiment, referred to as SMC1, 120 ml of media from 6×15 cm dishes was pooled from each condition (Luc, WT, EQ) and processed to produce three separate inputs for the TAILS experiment. Luc, WT and EQ inputs from the SMC1 experiment were each divided into triplicate 400 ug samples to generate technical replicate TAILS data. For the second experiment, referred to as SMC2, media was processed separately in triplicate for each condition (Luc1, Luc2, Luc3, WT1, WT2, WT3, EQ1, EQ2, EQ3) using 60 ml of media from 3×15 cm dishes for each process replicate. Inputs from the SMC2 experiment used process replicates of 300 ug each to generate TAILS data. The third experiment used input from cultured Human umbilical vein endothelial cells (HUVEC) from Lifeline Cell Technology grown in VascuLife Media and transduced in Lifeline Basal EC (+bFGF2 10 ng/ml). The HUVEC experiment used the same strategy as the SMC2 experiment, with 40 ml of media from 2×15 cm dishes for each process replicate and used 200 ug each to generate TAILS data. Inputs for process replicate experiments were restricted to the lowest concentration from the 9 parallel samples for SMC2 or HUVEC.
TMT10 isotopic labeling and negative selection of non-labeled peptides-Sample preparation was performed based on the TAILS protocol from the Overall lab with some modifications. From a single experiment, nine parallel protein samples in 50 mM HEPES pH 8.0, 150 mM NaCl were separately denatured with guanidinium chloride (Sigma, G4505) to reach a final concentration of 2.5M guanidinium chloride and 250 mM HEPES and incubated at 65° C. for 15 min. Reduction was achieved through addition of tris(2-carboxylethyl) phosphine (TCEP) at a final concentration of […] and incubated at 65° C. for 45 min. Alkylation reaction was performed with addition of iodoacetamide (IAA, Sigma, A3221) to a final concentration of 10 mM IAA for 15 min at room temperature in the dark. Following denaturation, reduction and alkylation steps, ten percent of each of the nine parallel protein samples was removed and combined to serve as a pooled reference. Isobaric tags were added to free amine groups using the TMT10plex Isobaric Mass Tagging Kit (ThermoFisher, 90113) with TMT channels randomly assigned to the nine samples and TMT 131 assigned to the pooled reference. […]
Regarding “AEBP1_37 (FLEGFLSELEPEPR; listed as Homo sapiens)”, the logFC.mEQ.over.Luc is given as −0.58.

Regarding “EFEMP1_124 (AVAGPEMQTGR; listed as Homo sapiens)”, the logFC.mEQ.over.Luc was −0.38.

With “FBN1_29 (LEAGNVKETR; listed as Homo sapiens)”, the logFC.mEQ.over.Luc was −0.34.

For “FLNA_1285 (LTQTGGPHVKAR; listed as Homo sapiens)”, the logFC.mEQ.over.Luc was −0.52.

“FN1_36 (MVQPQSPVAVSQSKPGCYDNGKHYQINQQWER; listed as Homo sapiens)” registered a logFC.mEQ.over.Luc of −0.47.

“FN1_40 (QSPVAVSQSKPGCYDNGKHYQINQQWER; listed as Homo sapiens)”: the logFC.mEQ.over.Luc is −0.50.

“FN1_886 (NQESTPVVIQQETTGTPR; listed as Homo sapiens)” had a logFC.mEQ.over.Luc of −0.43.

The substance “FN1_1143 (LTPGVEYVYTIQVLR; listed as Homo sapiens)” came in with a logFC.mEQ.over.Luc of −0.24.

Regarding “FN1_1656 (SSSPVTGYR; listed as Homo sapiens)”, the logFC.mEQ.over.Luc was −0.08.

Substance “HSPG2_2331 (ANLAYPAGSTQPIR; listed as Homo sapiens)” showed a logFC.mEQ.over.Luc of −0.01.

“IGFBP7_101 (AAGGPGVSGVCVCKSR; listed as Homo sapiens)” displayed a logFC.mEQ.over.Luc of −0.04.

Take “LOXL2_37 (FQQPAPEYHQPQAPANVAKIQLR; listed as Homo sapiens)”: the logFC.mEQ.over.Luc is recorded as −0.65.

Turning to “LOX_124 (WFQAGYSTSR; listed as Homo sapiens)”, the logFC.mEQ.over.Luc worked out at 0.03.

Substance “LTBP1_393 (LTATNFR; listed as Homo sapiens)” yielded a logFC.mEQ.over.Luc of −0.18.
